Results taken from the supplement of paper PMC7125110.
± gives the standard error. Variants at the floor of the assay were thinned out.

B1: glmS ribozyme (parent)
chain: AUAAAAGCGCCAGAACUACAGAAAUGUAGUUGACGAGGAGGAGGUUUAUCGAAUUUUCGGCGGAUGCCUCCAAA

Variants of: B1
Test: self-cleavage kobs at 10000 uM GlcN6P; higher = faster cleavage; RNA array
Details: with glucosamine-6-phosphate
Outline: (§1)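 kobs was derived by fitting per-tile medians to one- or two-exponential decays after normalising signals to baseline and to non-cleaving reference variants. Those signals came from barcoded ribozyme variants transcribed in situ by E. coli RNA polymerase on sequenced MiSeq chips, followed through a hybridised Cy3 probe at 37 °C and imaged over ~14 h. Glucosamine-6-phosphate (40 μM to 10 mM) in HEPES/KCl/Mg(OAc)2 buffer was flowed in. Weighted Michaelis–Menten fits across concentrations then gave kcat and KM.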

Row | Variant | self-cleavage kobs at 10000 uM GlcN6P
1 | G9U G32C C34G U54G A64U C71A | < 1e-05 s⁻¹
2 | A12C G41A U46G | 0.000334 ± 7.8e-05 s⁻¹
3 | A12G G13U U56G C61U C68G C70A | 4.15e-05 ± 1.7e-05 s⁻¹
4 | A15G G41A U54A | 9.17e-05 ± 2.8e-05 s⁻¹
5 | U31G C67A C71A | 0.000258 ± 6.9e-05 s⁻¹
6 | G7C U55G U56C U69A | < 1e-05 s⁻¹
7 | A14U A15G G41U | 0.000237 ± 5.3e-05 s⁻¹
8 | C19A G35C U47C U49G G51U C68U C71U | < 1e-05 s⁻¹
9 | G26U U30G C71U | 0.000403 ± 6.4e-05 s⁻¹
10 | C16U A33G A39U | < 1e-05 s⁻¹
11 | A14U U31C U46C | 0.00011 ± 1.7e-05 s⁻¹
12 | G13A U57G | 4.69e-05 ± 8.8e-06 s⁻¹
13 | G29A G32U A52G | 3.76e-05 ± 1.7e-05 s⁻¹
14 | A48G U69G | 3.66e-05 ± 1.3e-05 s⁻¹
15 | G41A G66A C68U | 3.05e-05 ± 1.3e-05 s⁻¹
16 | C11A G41U G43U G44A G51C G63A | < 1e-05 s⁻¹
17 | G37A G38A A42C G59U | < 1e-05 s⁻¹
18 | A15U A42U C67A | 0.000127 ± 3.2e-05 s⁻¹
19 | A6U G7C A14G U57C | < 1e-05 s⁻¹
20 | G9A A53C G62A C70G | < 1e-05 s⁻¹
21 | A12U G29C G41A | 0.000129 ± 4.9e-05 s⁻¹
22 | A39U G41C U49A C61U | < 1e-05 s⁻¹
23 | A15G C16U G29C | 0.00377 ± 0.00075 s⁻¹
24 | A39G U46G | 0.018 ± 0.0054 s⁻¹

Row | Variant | self-cleavage kobs at 10000 uM GlcN6P
25 | C34U G63C C68G | < 1e-05 s⁻¹
26 | C8A G9A C10U A33G A36G A39U U47C C58A | < 1e-05 s⁻¹
27 | A6G A33C A64G | < 1e-05 s⁻¹
28 | G37A G41U G59C G66U | < 1e-05 s⁻¹
29 | C8G G40C G59C C67G C71U | < 1e-05 s⁻¹
30 | U31G U55G U69G | 6.94e-05 ± 1.1e-05 s⁻¹
31 | G40U G43C U65A | < 1e-05 s⁻¹
32 | C16A G29C A39C | 0.000349 ± 6.1e-05 s⁻¹
33 | C16A U30C C61G | < 1e-05 s⁻¹
34 | U45C U65G C67A | 0.000786 ± 0.00016 s⁻¹
35 | G41C U56A G59C | < 1e-05 s⁻¹
36 | A6G G29U G43C C61U C67U | < 1e-05 s⁻¹
37 | C10U G38U U46A C58U | < 1e-05 s⁻¹
38 | G35U G40C A53U U54A | < 1e-05 s⁻¹
39 | C10A C58G G60A U69G | 5.7e-05 ± 1.6e-05 s⁻¹
40 | G26U A53C | 0.00559 ± 0.0013 s⁻¹
41 | C11A A33C A42C C50G | < 1e-05 s⁻¹
42 | G38C G43C G59C | < 1e-05 s⁻¹
43 | A14C A33U A36U G60U G62C | < 1e-05 s⁻¹
44 | A12C A15U G40U | 0.00018 ± 4e-05 s⁻¹
45 | G32U C34A G37U | < 1e-05 s⁻¹
46 | G32A C34U G51C | < 1e-05 s⁻¹
47 | A36C G43U U56C U57A C67G | < 1e-05 s⁻¹
48 | G13C G35U U47C A48C C61G C70U | < 1e-05 s⁻¹

Row | Variant | self-cleavage kobs at 10000 uM GlcN6P
49 | A33C G62C C70U | < 1e-05 s⁻¹
50 | G13C A14G U69G | 3.8e-05 ± 1.6e-05 s⁻¹
51 | A42U U56C C71U | 5.21e-05 ± 2e-05 s⁻¹
52 | C10U U49G C61U | < 1e-05 s⁻¹
53 | G40A U45A G66A | 0.00649 ± 0.0018 s⁻¹
54 | U45G A53G A64U | 8.08e-05 ± 1.8e-05 s⁻¹
55 | A20U G32C | 7.58e-05 ± 2.1e-05 s⁻¹
56 | A6U G7U G13U U31C | < 1e-05 s⁻¹
57 | A36U G37C C50U U57A U69G | 4.81e-05 ± 2.3e-05 s⁻¹
58 | A36U U49A A53U | 3.89e-05 ± 9.3e-06 s⁻¹
59 | G13U G44C U56C | < 1e-05 s⁻¹
60 | G40A A53G C71G | 0.00453 ± 0.001 s⁻¹
61 | A39U U65A | 0.00166 ± 0.00039 s⁻¹
62 | G26U U57G | 5.83e-05 ± 2e-05 s⁻¹
63 | A12U C16G G29A C67G | 0.000109 ± 2.3e-05 s⁻¹
64 | G35C A42C C70U | < 1e-05 s⁻¹
65 | A33C A36C C50U C68A | < 1e-05 s⁻¹
66 | A12U G13U U31C G40A G44A U56A | < 1e-05 s⁻¹
67 | C8G A33U U56A | < 1e-05 s⁻¹
68 | C34U G40U A42U | < 1e-05 s⁻¹
69 | G7A G9A A53G G60A U65A C67A | 0.000102 ± 2.7e-05 s⁻¹
70 | A6C U49A | < 1e-05 s⁻¹
71 | G29A U31C U54G | 0.000213 ± 6.7e-05 s⁻¹
72 | C16U G38U A52C C58A | < 1e-05 s⁻¹

Variants of: B1
Test: self-cleavage kobs at 2500 uM GlcN6P; higher = faster cleavage; RNA array
Details: with glucosamine-6-phosphate
Outline: as §1

Row | Variant | self-cleavage kobs at 2500 uM GlcN6P
73 | U47A A48C G51U | < 1e-05 s⁻¹
74 | C50U C58A C70G | 7.55e-05 ± 2.9e-05 s⁻¹
75 | A53G A64G C67G | 0.000335 ± 9.1e-05 s⁻¹
76 | A48G U69G | 0.000101 ± 3.7e-05 s⁻¹
77 | U46A U56G C58U G59U | < 1e-05 s⁻¹
78 | U56C A64U U65C | < 1e-05 s⁻¹
79 | A53U U54C U55A A64G | 0.00369 ± 0.00074 s⁻¹
80 | G51C C67G C71U | < 1e-05 s⁻¹
81 | G43A U46C A53G | < 1e-05 s⁻¹
82 | C50G U56G G59U | 8.66e-05 ± 3.9e-05 s⁻¹
83 | A52G U57G C58U | 4.96e-05 ± 1.8e-05 s⁻¹
84 | A52U C67A C71U | 7.56e-05 ± 3.1e-05 s⁻¹
